From publication PMC11022571, “Functional analysis of feedback inhibition-insensitive aspartate kinase identified in a threonine-accumulating mutant of Saccharomyces cerevisiae” (Applied and Environmental Microbiology, 2024) come the findings set out here.

Data set [1] deals with T1, Hom3 (aspartate kinase, AK) (Saccharomyces cerevisiae, UniProt P10869).
T1 sequence (P10869 1-527): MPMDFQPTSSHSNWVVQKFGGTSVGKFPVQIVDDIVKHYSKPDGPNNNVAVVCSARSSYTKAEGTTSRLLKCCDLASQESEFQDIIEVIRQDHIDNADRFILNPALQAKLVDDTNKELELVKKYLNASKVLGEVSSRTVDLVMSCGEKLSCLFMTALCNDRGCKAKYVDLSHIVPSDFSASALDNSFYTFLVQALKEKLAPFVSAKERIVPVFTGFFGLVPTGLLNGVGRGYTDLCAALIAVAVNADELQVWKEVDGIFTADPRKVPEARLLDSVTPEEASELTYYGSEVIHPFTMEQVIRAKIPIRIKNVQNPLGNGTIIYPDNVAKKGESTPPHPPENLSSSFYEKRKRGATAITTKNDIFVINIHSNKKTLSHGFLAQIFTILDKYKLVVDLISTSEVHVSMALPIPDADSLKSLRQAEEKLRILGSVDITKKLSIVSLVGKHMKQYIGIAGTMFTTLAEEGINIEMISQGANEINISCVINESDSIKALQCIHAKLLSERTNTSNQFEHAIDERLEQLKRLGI
The data set can be described thus: PK/LDH-coupled AK assay at […] Asp and […] ATP; BN-PAGE shift from ~[…] to ~[…] kDa with […] Thr. The data set is classed as biochemical.

Substrate in data set [2]: N[C@@H](CC(=O)O)C(=O)O
Kind of data set: steady-state kinetics (Km), PK/LDH-coupled assay. The data set is classed as biochemical, Saccharomyces cerevisiae. The conditions noted are these: Mg2+ ([…] MgSO4 in assay).

Substrate in data set [3]: Nc1ncnc2c1ncn2[C@@H]1O[C@H](COP(=O)(O)OP(=O)(O)OP(=O)(O)O)[C@@H](O)[C@H]1O
Kind of data set: steady-state kinetics (Km), PK/LDH-coupled assay. In kind it is biochemical, Saccharomyces cerevisiae. The note with it: Mg2+ ([…] MgSO4 in assay).

With `C[C@@H](O)[C@H](N)C(=O)O` [threonine], in data set [1], the half-inhibitory concentration (IC50) amounted to 5.4 ± 0.12 mM.

B1: Hom3 (aspartate kinase, AK) (Saccharomyces cerevisiae S288C) (protein)
chain: MPMDFQPTSSHSNWVVQKFGGTSVGKFPVQIVDDIVKHYSKPDGPNNNVAVVCSARSSYTKAEGTTSRLLKCCDLASQESEFQDIIEVIRQDHIDNADRFILNPALQAKLVDDTNKELELVKKYLNASKVLGEVSSRTVDLVMSCGEKLSCLFMTALCNDRGCKAKYVDLSHIVPSDFSASALDNSFYTFLVQALKEKLAPFVSAKERIVPVFTGFFGLVPTGLLNGVGRGYTDLCAALIAVAVNADELQVWKEVDGIFTADPRKVPEARLLDSVTPEEASELTYYGSEVIHPFTMEQVIRAKIPIRIKNVQNPLGNGTIIYPDNVAKKGESTPPHPPENLSSSFYEKRKRGATAITTKNDIFVINIHSNKKTLSHGFLAQIFTILDKYKLVVDLISTSEVHVSMALPIPDADSLKSLRQAEEKLRILGSVDITKKLSIVSLVGKHMKQYIGIAGTMFTTLAEEGINIEMISQGANEINISCVINESDSIKALQCIHAKLLSERTNTSNQFEHAIDERLEQLKRLGI
In the case of B1, in data set [2], the Michaelis-Menten constant (Km) was found to be 3800 ± 360 µM, the turnover number (kcat) was 55 ± 1.5 s⁻¹ and the kcat/Km is 15000 M⁻¹ s⁻¹. In data set [3], the Km came out at 830 ± 44 µM, the kcat came to 54 ± 0.78 s⁻¹ and the specificity constant (kcat/Km) stood at 65000 M⁻¹ s⁻¹.

B2: Hom3 (aspartate kinase, AK) (Saccharomyces cerevisiae S288C; A462T) (protein)
chain: MPMDFQPTSSHSNWVVQKFGGTSVGKFPVQIVDDIVKHYSKPDGPNNNVAVVCSARSSYTKAEGTTSRLLKCCDLASQESEFQDIIEVIRQDHIDNADRFILNPALQAKLVDDTNKELELVKKYLNASKVLGEVSSRTVDLVMSCGEKLSCLFMTALCNDRGCKAKYVDLSHIVPSDFSASALDNSFYTFLVQALKEKLAPFVSAKERIVPVFTGFFGLVPTGLLNGVGRGYTDLCAALIAVAVNADELQVWKEVDGIFTADPRKVPEARLLDSVTPEEASELTYYGSEVIHPFTMEQVIRAKIPIRIKNVQNPLGNGTIIYPDNVAKKGESTPPHPPENLSSSFYEKRKRGATAITTKNDIFVINIHSNKKTLSHGFLAQIFTILDKYKLVVDLISTSEVHVSMALPIPDADSLKSLRQAEEKLRILGSVDITKKLSIVSLVGKHMKQYIGIAGTMFTTLTEEGINIEMISQGANEINISCVINESDSIKALQCIHAKLLSERTNTSNQFEHAIDERLEQLKRLGI
On to B2, for which, in data set [2], the Michaelis constant (Km) came to 4400 ± 370 µM, the kcat is 55 ± 1.4 s⁻¹ and the catalytic efficiency (kcat/Km) was 13000 M⁻¹ s⁻¹. Besides, in data set [3], the Km amounted to 1000 ± 71 µM, the turnover number (kcat) turned out to be 53 ± 1.1 s⁻¹ and the kcat/Km worked out at 51000 M⁻¹ s⁻¹.

What is called IC50 is the concentration that inhibits the measured activity by half. The Km is the substrate concentration at which the rate is half of its maximum. The term kcat denotes the maximal rate divided by the concentration of active sites. Usually kcat/Km stands for the turnover number divided by the Michaelis constant.
